# Measurements published in PMC9265717.
# Biological target: toll-like receptor 5 (TLR5) (human (endogenous in MDA-MB-468 and MDA-MB-231)) (UniProt O60602)
# Chain of UniProt O60602 (O60602 21-858): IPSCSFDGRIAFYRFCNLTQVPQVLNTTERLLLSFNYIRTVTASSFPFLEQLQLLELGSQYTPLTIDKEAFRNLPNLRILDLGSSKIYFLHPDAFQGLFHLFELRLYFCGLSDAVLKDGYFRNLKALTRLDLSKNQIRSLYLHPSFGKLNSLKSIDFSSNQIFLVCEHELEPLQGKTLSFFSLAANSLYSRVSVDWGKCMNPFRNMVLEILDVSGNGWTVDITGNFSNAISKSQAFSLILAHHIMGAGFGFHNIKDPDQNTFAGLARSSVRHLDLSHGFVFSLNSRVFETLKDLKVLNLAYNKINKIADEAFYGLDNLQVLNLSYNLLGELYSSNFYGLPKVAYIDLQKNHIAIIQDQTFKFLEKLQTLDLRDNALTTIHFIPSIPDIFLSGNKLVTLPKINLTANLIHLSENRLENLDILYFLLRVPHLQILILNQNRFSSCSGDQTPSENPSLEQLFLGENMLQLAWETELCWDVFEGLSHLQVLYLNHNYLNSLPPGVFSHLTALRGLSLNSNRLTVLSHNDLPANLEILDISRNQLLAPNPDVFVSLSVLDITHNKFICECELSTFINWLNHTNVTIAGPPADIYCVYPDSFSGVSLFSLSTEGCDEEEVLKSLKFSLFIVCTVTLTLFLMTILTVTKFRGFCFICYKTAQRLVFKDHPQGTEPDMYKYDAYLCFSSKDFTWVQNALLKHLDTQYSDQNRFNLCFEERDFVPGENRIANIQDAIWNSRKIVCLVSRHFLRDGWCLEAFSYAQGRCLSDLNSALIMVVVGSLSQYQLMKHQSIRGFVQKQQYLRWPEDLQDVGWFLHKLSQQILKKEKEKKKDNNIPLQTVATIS
substance,measurement,value
fibronectin EDA (FnEDA) domain (domain or fragment),percent of IL-8 release (ELISA) by MDA-MB-231 cells in response to FnEDA (5 µM) that is inhibited by a blocking antibody to TLR5,30%
